From patent US20260345798A1, “COMPOUNDS AND METHODS OF USE THEREOF” (Virginia Commonwealth University, priority 2023, published 2026) come the findings set out here.

The nature of data set [1]: PK study in mice, IV and IP. The data set is classed as in vivo. The protocol: These studies were conducted at the Sanford-Burnham Pharmacology Core facility for measurements of IVMT-Rx-3 in plasma after dosing.
The chemical formula of IVMT-Rx-3 (PDZ1/2i) is provided as FIG. 1A, and synthesis schema is described above in Chemical Example 1. Docked structure of IVMT-Rx-3 in complex with MDA-9/Syntenin is provided as FIG. 1B. After confirming the synthesis product using different analytical methods, e.g., HPLC, LC/MS and NMR (FIGS. 8A-8F), the dissociation constant of IVMT-Rx-3-recombinant MDA-9/Syntenin complex was measured to be 63+/−11 μM using microscale thermophoresis (MST) analysis (FIG. 1C). In order to assess if this hybrid chimeric molecule (small molecule linked to a peptide) was suitable for cellular and in vivo assays, initial PK studies in mice were performed with IVMT-Rx-3 administered both IV (5.0 mg/kg) and IP (50.0 mg/kg), and compound concentration in serum was measured at the indicated times (FIG. 1D).

The next data set relates to NF-κB. As to the kind of experiment: NF-κB (p65) transcription factor assay. In kind it is cell-based, human. To be noted: A-375 and C8161.9 melanoma cells. The protocol: FIG. 4C is a histogram showing the NF-κB transcriptional activity of A-375 melanoma cells treated with the indicated doses of IVMT-Rx-3. *: Statistical significance (p<0.05).
FIG. 4D is a histogram showing the NF-κB transcriptional activity of C8161.9 melanoma cells treated with the indicated doses of IVMT-Rx-3. *: Statistical significance (p<0.05).
NF-κB transcription factor assay kits were obtained from Cayman Chemical (Ann Arbor, MI, USA) (Cat #10007889). Nuclear extracts were prepared from cells using the Nuclear and Cytoplasmic Extraction kit (Thermo Fisher Scientific, USA). The samples were then added to pretreated wells for 1 hr. after which they were washed with a wash buffer provided in the kit. The NF-κB antibody was then added with a 1 hr. incubation and after washing the antibody, HRP-conjugated secondary antibody was added for 1 hr. Lastly, a developing solution followed by a stop solution was added. The wells were analyzed with a microplate reader for absorbance at 450 nm.

The test system of a further data set is MMP-2 and MMP-9. Description: MMP-2 and MMP-9 mRNA by real time qPCR, human melanoma cells. In kind it is cell-based. To be noted: FIG. 5A. From the text:
FIG. 5A is a series of histograms showing the MMP-2 and MMP-9 mRNA transcriptional activity in established human melanoma cells (A-375, C8161.9, and MeWo cells) and patient-derived early passage human melanoma cells (TPF-19-219, TPF-19-235, and TPF-16-238 cells) treated with IVMT-Rx-3 at varying doses, as determined by qPCR. *: Statistical significance (p<0.05).
(§1) Total cellular RNA was extracted using an RNAeasy kit (Qiagen, Germany) as described previously (8,9). All Taqman probes used in this study were obtained from Applied Biosystems (Applied Biosystems, Foster City, CA). Real time PCR was performed using an ABI ViiA7 fast real-time PCR system (Applied Biosystems, Foster City, CA).
On the technique in general: Real-time PCR tracks product formation cycle by cycle.

The next data set has as its system MDA-9/Syntenin. Description: MDA-9/Syntenin protein expression. In kind it is cell-based.
The test system of data set [2] is primary normal human epidermal melanocytes (NHEM). Description: MTT and colony formation assays in normal human melanocytes. In kind it is cell-based. The protocol:
FIG. 2A is a histogram showing the results of an MTT assay of normal human melanocytes treated with varying concentrations of IVMT-Rx-3.
FIG. 2B is a histogram showing the results of a colony formation assay of normal human melanocytes treated with varying concentrations of IVMT-Rx-3. Two-hundred cells were plated on 60-mm dishes, treated with IVMT-Rx-3 at different doses. Every third day, culture media was replaced with fresh IVMT-Rx-3-containing media. After two weeks, colonies were stained, counted and graphs plotted.
The effect of IVMT-Rx-3 on primary normal human epidermal melanocyte cell growth and survival was determined after short term (24 hr., growth assays) (FIG. 2A) and long-term exposure (3-week, clonal assays) (FIG. 2B).

The subject of the next data set is IL-6, IL-10, IL-16. As to the kind of experiment: IL-6, IL-10, IL-16 mRNA by semiquantitative RT-PCR, human melanoma cells. To be noted: human melanoma cells (A-375, C8161.9). In kind it is cell-based. The protocol:
FIG. 14 is a series of histograms showing the IL-6, IL-10, and IL-16 mRNA fold change in RNA lysates prepared from A-375, C8161.9, and B16 cells treated with IVMT-Rx-3 at varying concentrations as indicated.
as §1

Residues, ends and D or L forms follow the SMILES beside them.

As usually defined, the bioavailability is the share of a dose that reaches the circulation, judged against a reference dose that is usually intravenous. Higher therefore signals good availability. With `Cc1cc(NC(=O)c2nc3[nH]c4c(c(=O)n3n2)CCC4)c(C)cc1NC(=O)CCOCCC(=O)N[C@H](C(=O)N[C@@H](CC(N)=O)C(=O)N[C@@H](CCC(=O)O)C(=O)N[C@@H](Cc1ccc(O)cc1)C(=O)N[C@@H](Cc1ccc(O)cc1)C(=O)N[C@H](C(=O)O)C(C)C)[C@@H](C)O` [IVMT-Rx-3] (HELM PEPTIDE1{[Cc1cc(NC(=O)c2nc3[nH]c4c(c(=O)n3n2)CCC4)c(C)cc1NC(=O)CCOCCC(=O)[*:2]].T.N.E.Y.Y.V}$$$$V2.0), the persistence in vivo entry in data set [1] (IV 5.0 mg/kg and IP 50.0 mg/kg) is given as “long-lived in vivo”. Also, the bioavailability in data set [1] (mouse, serum, IP 50.0 mg/kg (IV 5.0 mg/kg)) came to 10%. Further, the “transcriptional activity of NF-κB” value with NF-κB is given as “suppressed the transcriptional activity of NF-κB in a dose-dependent manner”. Also, the “MMP-2 and MMP-9 mRNA expression (transcriptional level)” value in the data set on MMP-2 and MMP-9 was “down regulation”. For the same compound, the “effect on MDA-9/Syntenin protein expression” value in the data set on MDA-9/Syntenin was “does not affect MDA-9/Syntenin protein expression”. Also, the “effect on cell proliferation on repeated treatment” value in data set [2] (50 μM, repeated treatment, FIG. 2A and 2B) was “did not show any effect on cell proliferation”. For the same compound, the “toxicity in primary melanocytes” value in data set [2] (50 μM, 24 hr growth assay and 3-week clonal assay) was “No significant toxicity”. Also, the “toxicity in early passage normal human melanocytes” value in data set [2] (summary statement) was “without provoking toxicity”. The “effect on cell proliferation in NHEM (MTT assay)” value in data set [2] (varying concentrations, FIG. 2A) is listed as “lack of effect”. The “IL-6, IL-10, IL-16 expression” value with IL-6, IL-10, IL-16 was “Down-regulation”.
